Laboratory results taken from paper doi:10.1101/2023.06.15.545204.

Target: BST4-mScarlet-I (Chlamydomonas reinhardtii)
Assay: Slimfield microscopy with single particle tracking and molecular counting

interval between stoichiometry peaks: 5
stoichiometry N: 5
Substance: BST4-mScarlet-I (natural protein)
